Test results published in the Immune Epitope Database (IEDB).

Key:
[1] = target: HLA-B*35:01; test: IEDB peptide-MHC binding, purified MHC/competitive/radioactivity; filed as Kd, often an IC50 or EC50 that approximates it; ≥ and ≤ were set here for values at or beyond the usual limits of such assays
[2] = target: HLA-B*54:01; test: as above
[3] = target: HLA-B*07:02; test: as above
[4] = target: HLA-B*51:01; test: as above
[5] = target: HLA-B*53:01; test: as above
[6] = target: HLA-A*03:01; test: IEDB peptide-MHC binding, purified MHC/competitive/fluorescence; filed as Kd, often an IC50 or EC50 that approximates it; ≥ and ≤ were set here for values at or beyond the usual limits of such assays
[7] = target: HLA-A*31:01; test: as above
[8] = target: HLA-A*02:01; test: IEDB peptide-MHC binding, purified MHC/competitive/radioactivity; filed as Kd, often an IC50 or EC50 that approximates it; ≥ and ≤ were set here for values at or beyond the usual limits of such assays
[9] = target: HLA-B*15:03; test: as above; settings: source organism: Vaccinia virus WR
[10] = target: HLA-B*45:01; test: as above; settings: source organism: Mammarenavirus brazilense
[11] = target: HLA-B*18:01; test: as above; settings: source organism: Mammarenavirus brazilense
[12] = target: HLA-B*40:01; test: as above; settings: source organism: Mammarenavirus brazilense
[13] = target: HLA-B*40:02; test: as above; settings: source organism: Mammarenavirus brazilense
[14] = target: HLA-B*44:03; test: as above; settings: source organism: Mammarenavirus brazilense
[15] = target: HLA-B*44:02; test: as above; settings: source organism: Mammarenavirus brazilense
[16] = target: HLA-A*11:01; test: IEDB peptide-MHC binding, purified MHC/direct/fluorescence; filed as Kd, often an IC50 or EC50 that approximates it; ≥ and ≤ were set here for values at or beyond the usual limits of such assays
[17] = target: HLA-A*02:06; test: IEDB peptide-MHC binding, purified MHC/competitive/radioactivity; filed as Kd, often an IC50 or EC50 that approximates it; ≥ and ≤ were set here for values at or beyond the usual limits of such assays; settings: source organism: Vaccinia virus WR
[18] = target: HLA-A*02:03; test: as above; settings: source organism: Vaccinia virus WR
[19] = target: HLA-A*02:02; test: as above; settings: source organism: Vaccinia virus WR
[20] = target: HLA-A*32:01; test: as above; settings: source organism: Vaccinia virus WR
[21] = target: HLA-A*68:01; test: as above; settings: source organism: Dengue virus 2 Jamaica/1409/1983
[22] = target: HLA-A*03:01; test: IEDB peptide-MHC binding, purified MHC/direct/fluorescence; filed as Kd, often an IC50 or EC50 that approximates it; ≥ and ≤ were set here for values at or beyond the usual limits of such assays; settings: source organism: Orthohantavirus dobravaense
[23] = source organism: Vaccinia virus WR
[24] = source organism: Desulfitobacterium hafniense DCB-2
[25] = source organism: Bacillus anthracis str. Tsiankovskii-I
[26] = source organism: SARS coronavirus Tor2
[27] = source organism: Yellow fever virus 1899/81
[28] = source organism: Triticum aestivum

IPIGMQFDKV
Kd [1, 23]: 5280 nM | Kd [2, 23]: 40.4 nM | Kd [3, 23]: 4910 nM | Kd [4, 23]: 394 nM | Kd [5, 23]: 590 nM

ALFAGDLYR
Kd [6, 24]: 12.9 nM | Kd [7, 24]: 3.9 nM

LLTTPKFTV
Kd ([8]; source organism: Human alphaherpesvirus 1 strain 17): 500 nM

IISYFIFNR
Kd [6, 25]: 304 nM | Kd [7, 25]: 22.5 nM

TPKYKFVRI
Kd [1, 26]: ≥ 77400 nM | Kd [2, 26]: ≥ 46200 nM | Kd [3, 26]: ≥ 10000 nM | Kd [4, 26]: 16100 nM | Kd [5, 26]: 16000 nM

LMWITQCFL
Kd ([8]; source organism: Homo sapiens): 78 nM

VLKGLYNFA
Kd ([8]; source organism: Lassa virus Josiah): 6250 nM

IPSTVKTNLY
Kd [1, 23]: 248 nM | Kd [2, 23]: 10300 nM | Kd [3, 23]: ≥ 25600 nM | Kd [4, 23]: ≥ 69600 nM | Kd [5, 23]: 213 nM

YQHFVARVF
Kd [9]: 0.399 nM

EEVPNIIHEA
Kd [10]: 269 nM | Kd [11]: 12400 nM | Kd [12]: ≥ 20400 nM | Kd [13]: 790 nM | Kd [14]: 16000 nM | Kd [15]: ≥ 26900 nM

KPTTFMLKY
Kd [1, 26]: 41.3 nM | Kd [2, 26]: 5220 nM | Kd [3, 26]: 11400 nM | Kd [4, 26]: 13000 nM | Kd [5, 26]: 24.7 nM

MPTDMLKLF
Kd [1, 23]: 0.163 nM | Kd [2, 23]: 28.6 nM | Kd [3, 23]: 17.8 nM | Kd [4, 23]: 99.2 nM | Kd [5, 23]: 0.141 nM

GTHPFSRIR
Kd [7, 27]: 6 nM | Kd [16, 27]: 326 nM

PPCQCTVQEF
Kd [1, 23]: ≥ 23400 nM | Kd [2, 23]: ≥ 69900 nM | Kd [3, 23]: ≥ 45300 nM | Kd [4, 23]: ≥ 69600 nM | Kd [5, 23]: 5150 nM

NMGVAMNLF
Kd [9]: 998 nM

QPFRPQQPY
Kd [1, 28]: 296 nM | Kd [2, 28]: ≥ 78100 nM | Kd [3, 28]: ≥ 77500 nM | Kd [4, 28]: ≥ 77500 nM | Kd [5, 28]: ≥ 35200 nM

IMRNFLRSI
Kd [17]: 3920 nM | Kd [18]: 0.398 nM | Kd [19]: 485 nM | Kd [9]: 106 nM

IMFAKTLDF
Kd [20]: 6.82 nM | Kd [9]: 0.311 nM

AVSMANIFR
Kd ([7]; source organism: dengue virus type 1): 1.37 nM | Kd ([16]; source organism: Dengue virus 1 Singapore/S275/1990): 8.9 nM | Kd [21]: 55.4 nM

KTHESHLVR
Kd ([7]; source organism: Yellow fever virus): 21.2 nM | Kd ([16]; source organism: Yellow fever virus 17D): 35.6 nM

VTYDYIIPK
Kd ([7]; source organism: Kurkino virus): 42.4 nM | Kd [22]: 50.8 nM | Kd ([16]; source organism: Orthohantavirus dobravaense): 1.2 nM

LPEETNIGCA
Kd [1, 23]: 8680 nM | Kd [2, 23]: 243 nM | Kd [3, 23]: ≥ 20700 nM | Kd [4, 23]: ≥ 69600 nM | Kd [5, 23]: 2080 nM
